Source: paper PMC11919738, “Mechanism for Vipp1 spiral formation, ring biogenesis, and membrane repair” (Nature Structural & Molecular Biology, 2024)
Positions count from the first letter of the chain named. Names may count otherwise.

B1: Vipp1Δα6_(1–219) (Vipp1 with the C-terminal domain truncated) (domain or fragment, Nostoc punctiforme, UniProt B2J6D9 1-219, looked up)
chain: MGLFDRIKRVVSSNLNDLVNKAEDPEKMLEQAILEMQEDLVQLRQGVAQAIAAQKRSEKQYNDAQNEINKWQRNAQLALQKGDENLARQALERKKTYTDTSAALKASLDTQSTQVETLKRNLIQLESKISEAKTKKEMLKARITTAKAQEQLQGMVRGMNTSSAMSAFERMEEKVLMQESRAQALGELAGADLETQFAQLEGGSDVDDELAALKAQMLP
notes: model built for amino acids 1-217; also called Vipp1_(Δα6_L2); Vipp1_(Δα6_L3); source: E. coli C43 (DE3) with pspA gene knockout, purified (amylose resin, TEV, Ni-NTA, SEC); not shown: His6, N-terminal, cleaved; MBP, N-terminal, cleaved
B2: Vipp1 (vesicle-inducing protein in plastids 1) from Nostoc punctiforme (natural protein, UniProt B2J6D9 1-258, looked up)
chain: MGLFDRIKRVVSSNLNDLVNKAEDPEKMLEQAILEMQEDLVQLRQGVAQAIAAQKRSEKQYNDAQNEINKWQRNAQLALQKGDENLARQALERKKTYTDTSAALKASLDTQSTQVETLKRNLIQLESKISEAKTKKEMLKARITTAKAQEQLQGMVRGMNTSSAMSAFERMEEKVLMQESRAQALGELAGADLETQFAQLEGGSDVDDELAALKAQMLPPATPVTQAQLPPQQETTPAKSNEVVDAELDSLRKQLDQL
notes: Vipp1, Nostoc punctiforme, UniProt B2J6D9; model built for amino acids 1-214 in Vipp1L1; Forms polymers (helical filaments, rings, sheets, spirals); the number of subunits is not fixed; RingsHS are the same protein purified with 50 mM NaCl in the SEC buffer; also called IM30; native Vipp1; source: E. coli C43 (DE3) with pspA gene knockout, purified (amylose resin, TEV, Ni-NTA, SEC); not shown: …
B3: Vipp1-F197K/L200K (Vipp1 interface 3 mutant) (natural protein, Nostoc punctiforme, UniProt B2J6D9 1-258, looked up)
chain: B2 chain with F197K, L200K
notes: Vipp1, Nostoc punctiforme, UniProt B2J6D9, with F197K and L200K; Co-purified with E. coli membrane (lipid bilayer in the filament lumen); source: E. coli C43 (DE3) with pspA gene knockout, purified (amylose resin, TEV, Ni-NTA, SEC); not shown: His6, N-terminal, cleaved; MBP, N-terminal, cleaved

Target: the molecule itself
Test: cryo-EM structure; helical filaments of purified protein, 60 µM, low-salt SEC buffer, helical reconstruction

Binding result, binds:
B1
B2
B3
